PMC3087855 (Nature structural & molecular biology, 2011)

Biological target: the molecule itself
Experiment: crystal structure

B1: bacteriophage P22 portal protein core (residues 1-602) (domain or fragment, UniProt P26744 1-602, looked up)
chain: MADNENRLESILSRFDADWTASDEARREAKNDLFFSRVSQWDDWLSQYTTLQYRGQFDVVRPVVRKLVSEMRQNPIDVLYRPKDGARPDAADVLMGMYRTDMRHNTAKIAVNIAVREQIEAGVGAWRLVTDYEDQSPTSNNQVIRREPIHSACSHVIWDSNSKLMDKSDARHCTVIHSMSQNGWEDFAEKYDLDADDIPSFQNPNDWVFPWLTQDTIQIAEFYEVVEKKETAFIYQDPVTGEPVSYFKRDIKDVIDDLADSGFIKIAERQIKRRRVYKSIITCTAVLKDKQLIAGEHIPIVPVFGEWGFVEDKEVYEGVVRLTKDGQRLRNMIMSFNADIVARTPKKKPFFWPEQIAGFEHMYDGNDDYPYYLLNRTDENSGDLPTQPLAYYENPEVPQANAYMLEAATSAVKEVATLGVDTEAVNGGQVAFDTVNQLNMRADLETYVFQDNLATAMRRDGEIYQSIVNDIYDVPRNVTITLEDGSEKDVQLMAEVVDLATGEKQVLNDIRGRYECYTDVGPSFQSMKQQNRAEILELLGKTPQGTPEYQLLLLQYFTLLDGKGVEMMRDYANKQLIQMGVKKPETPEEQQWLVEAQQAKQG
modifications: selenomethionine derivatized (methionines replaced by selenomethionine)
B1 was tested, and the “stoichiometry N” value was 12.
